Square brackets hold non-standard residues; d marks the D form. pS = N[C@@H](COP(=O)(O)O)C(=O)O

The values below come from article PMC8875425 (ACS Central Science, 2022).

For assay [1], the target named is KIX domain of CREB-binding protein (CBP) (UniProt P45481 588-672). Kind of assay: fluorescence polarisation.
The target of assay [2] is MBP-KIX-apoferritin construct 3 (24-mer double-shell complex) (not stated | mouse). Kind of assay: fluorescence polarisation.

Sequence of KIX domain of CREB-binding protein (CBP) (P45481 588-672): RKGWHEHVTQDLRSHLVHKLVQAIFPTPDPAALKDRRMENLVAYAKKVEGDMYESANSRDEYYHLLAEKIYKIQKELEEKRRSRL

For Ac-LSRRP[pS]YRKILNDLSSDAP-NH2 [peptide 7], the IC50 in assay [1] stood at 50 µM; in assay [2], 311 µM.

As for Ac-LKRRP[pS]YRKILNDLSSDAP-NH2 [peptide 7′], the results for the IC50 in assay [1] and in assay [2] were 24.2 µM and 170 µM, respectively.
